# Article PMC3351107 (Cerebellum (London, England), 2009)
# B1: S100B, purified bovine brain (natural protein, UniProt P02638 1-92, looked up)
# chain: MSELEKAVVALIDVFHQYSGREGDKHKLKKSELKELINNELSHFLEEIKEQEVVDKVMETLDSDGDGECDFQEFMAFVAMITTACHEFFEHE
# Key:
# [1] = biological target: T1, myo-inositol monophosphatase 1 (IMPA1), purified bovine brain (bovine, UniProt P20456 1-277); test: cross-linking
# T1 sequence (looked up): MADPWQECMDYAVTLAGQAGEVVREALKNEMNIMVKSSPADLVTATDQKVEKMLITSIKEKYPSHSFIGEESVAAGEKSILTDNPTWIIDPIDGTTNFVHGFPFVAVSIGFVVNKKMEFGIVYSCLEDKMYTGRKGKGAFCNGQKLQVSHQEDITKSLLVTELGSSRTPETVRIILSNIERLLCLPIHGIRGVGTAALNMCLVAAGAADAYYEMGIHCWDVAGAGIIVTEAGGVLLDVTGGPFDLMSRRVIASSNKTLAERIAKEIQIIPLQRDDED
# cross-linking = biological target: the molecule itself; test: cross-linking
binder,measurement,setting,value
B1,binding result,[1],binds
same,binding result,cross-linking,binds
